Drawing on the supplement of paper PMC9233669, this text covers self-aminoacylation for 21 sequences.

The test system of one data set is biotinyl-Phe-oxazolone. Briefly: self-aminoacylation, catalytic enhancement (BFO) (fold over background); higher = more active; k-Seq, kA / k0A0; sequences stand for … in GGGAAUGGAUCCACAUCUACGAAUUC…UUCACUGCAGACUUGACGAAGCUG
The procedure, abridged: (§1)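 Catalytic enhancement equals the median kA over the uncatalyzed rate, the latter read from the low-activity peak of a bimodal Gaussian fit. Values of kA came from fitting each sequence's fraction reacted to a pseudo-first-order model, with 1000 bootstraps. Reacted RNA was captured with streptavidin and quantified by triplicate qPCR and Illumina sequencing after 90 minutes at room temperature with 2–1250 μM biotinyl-aminoacyl-oxazolone and 0.43 μM mutagenized RNA pools bearing a 21-nt variable region.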

For another data set, the system named is biotinyl-Val-oxazolone. Briefly: self-aminoacylation, catalytic enhancement (BVO) (fold over background); higher = more active; k-Seq, kA / k0A0; sequences stand for … in GGGAAUGGAUCCACAUCUACGAAUUC…UUCACUGCAGACUUGACGAAGCUG
The procedure, abridged:
as §1

For another data set, the system named is biotinyl-Met-oxazolone. Briefly: self-aminoacylation, catalytic enhancement (BMO) (fold over background); higher = more active; k-Seq, kA / k0A0; sequences stand for … in GGGAAUGGAUCCACAUCUACGAAUUC…UUCACUGCAGACUUGACGAAGCUG
The essentials:
as §1

The subject of another data set is biotinyl-Leu-oxazolone. Briefly: self-aminoacylation, catalytic enhancement (BLO) (fold over background); higher = more active; k-Seq, kA / k0A0; sequences stand for … in GGGAAUGGAUCCACAUCUACGAAUUC…UUCACUGCAGACUUGACGAAGCUG
The essentials:
as §1

The test system of the next data set is biotinyl-Ile-oxazolone. Put plainly: self-aminoacylation, catalytic enhancement (BIO) (fold over background); higher = more active; k-Seq, kA / k0A0; sequences stand for … in GGGAAUGGAUCCACAUCUACGAAUUC…UUCACUGCAGACUUGACGAAGCUG
The procedure, abridged:
as §1

In another data set the test system is biotinyl-Trp-oxazolone. Briefly: self-aminoacylation, catalytic enhancement (BWO) (fold over background); higher = more active; k-Seq, kA / k0A0; sequences stand for … in GGGAAUGGAUCCACAUCUACGAAUUC…UUCACUGCAGACUUGACGAAGCUG
The essentials:
as §1

Variants at the floor of the assay were thinned out.

Take “AUUCACCUAGGACAUCGGGCG [Fam2.2 aminoacylation ribozyme variant]”: the self-aminoacylation in the data set on biotinyl-Phe-oxazolone amounted to 15.1; in the data set on biotinyl-Val-oxazolone it was 2.38; in the data set on biotinyl-Met-oxazolone, 2.2; with biotinyl-Leu-oxazolone, 2.79; in the data set on biotinyl-Ile-oxazolone it was 2.31; in the data set on biotinyl-Trp-oxazolone, 2.27.
For “CCACAGUUCAAGGAAUCGGUC [Fam1B.1 aminoacylation ribozyme variant]”, the self-aminoacylation was 1.09 in the data set on biotinyl-Phe-oxazolone; 1.19 in the data set on biotinyl-Val-oxazolone; 1.12 with biotinyl-Met-oxazolone; 1.33 with biotinyl-Leu-oxazolone; 1.23 in the data set on biotinyl-Ile-oxazolone; 1.18 with biotinyl-Trp-oxazolone.
Consider “CCACACUUCAGGCAAUCGAUC [Fam1B.1 aminoacylation ribozyme variant]”, for which the self-aminoacylation was found to be 0.731 in the data set on biotinyl-Phe-oxazolone; 0.892 in the data set on biotinyl-Val-oxazolone; 0.634 in the data set on biotinyl-Met-oxazolone; 0.591 in the data set on biotinyl-Leu-oxazolone; 0.813 in the data set on biotinyl-Ile-oxazolone; 0.804 in the data set with biotinyl-Trp-oxazolone.
For the sequence “CCAUACUUCAAGCAAUCGGUU [Fam1B.1 aminoacylation ribozyme variant]”, the self-aminoacylation in the data set on biotinyl-Phe-oxazolone came out at 3.48; in the data set with biotinyl-Val-oxazolone it was 1.71; in the data set with biotinyl-Met-oxazolone, 1.17; with biotinyl-Leu-oxazolone, 1.61; in the data set on biotinyl-Ile-oxazolone, 1.61; with biotinyl-Trp-oxazolone it was 2.98.
Consider “CGACUUCAAACAAUCGGCCUG [Fam1A.1 aminoacylation ribozyme variant]”, for which the self-aminoacylation in the data set with biotinyl-Phe-oxazolone was found to be 277; with biotinyl-Val-oxazolone, 4.06; in the data set with biotinyl-Met-oxazolone, 3.62; with biotinyl-Leu-oxazolone, 6.69; in the data set on biotinyl-Ile-oxazolone it was 3.29; in the data set with biotinyl-Trp-oxazolone it was 95.7.
Consider “AUUACCCCGGGCAUCGAGUGA [Fam2.1 aminoacylation ribozyme variant]”, for which the self-aminoacylation worked out at 39.4 in the data set on biotinyl-Phe-oxazolone; 4.03 in the data set with biotinyl-Val-oxazolone; 5.45 in the data set on biotinyl-Met-oxazolone; 8.03 in the data set on biotinyl-Leu-oxazolone; 3.78 in the data set with biotinyl-Ile-oxazolone; 8.11 in the data set with biotinyl-Trp-oxazolone.
On to “AAGUUCGCUAAUAGGCGCAAG [Fam3.1 aminoacylation ribozyme variant]”, for which the self-aminoacylation with biotinyl-Phe-oxazolone turned out to be 1.58; in the data set with biotinyl-Val-oxazolone, 1.16; in the data set with biotinyl-Met-oxazolone it was 0.965; with biotinyl-Leu-oxazolone it was 1.03; in the data set on biotinyl-Ile-oxazolone, 1.23; in the data set on biotinyl-Trp-oxazolone, 1.2.
“AUUCACCUAAGUCAUCGGGGG [Fam2.2 aminoacylation ribozyme variant]”: the self-aminoacylation in the data set on biotinyl-Phe-oxazolone stood at 10.9; in the data set on biotinyl-Val-oxazolone it was 1.76; in the data set on biotinyl-Met-oxazolone, 2.48; with biotinyl-Leu-oxazolone, 2.5; in the data set with biotinyl-Ile-oxazolone, 1.92; in the data set with biotinyl-Trp-oxazolone, 2.27.
Regarding “CAUACCCUGGUCAUCGAGUGA [Fam2.1 aminoacylation ribozyme variant]”, the self-aminoacylation in the data set with biotinyl-Phe-oxazolone stood at 17.6; in the data set on biotinyl-Val-oxazolone it was 6.04; in the data set on biotinyl-Met-oxazolone it was 11.3; in the data set with biotinyl-Leu-oxazolone it was 11.8; in the data set with biotinyl-Ile-oxazolone, 5.75; in the data set with biotinyl-Trp-oxazolone, 11.7.
On to “AAUCACCUAGGUCAUCUGGUG [Fam2.2 aminoacylation ribozyme variant]”, for which the self-aminoacylation with biotinyl-Phe-oxazolone turned out to be 11.2; with biotinyl-Val-oxazolone it was 1.67; with biotinyl-Met-oxazolone, 2.08; in the data set on biotinyl-Leu-oxazolone, 2.27; in the data set with biotinyl-Ile-oxazolone, 1.96; with biotinyl-Trp-oxazolone, 2.52.
For the sequence “AGGUUUGCUAAUAGUCGCAAU [Fam3.1 aminoacylation ribozyme variant]”, the self-aminoacylation in the data set with biotinyl-Phe-oxazolone is 2.94; in the data set on biotinyl-Val-oxazolone it was 1.85; in the data set on biotinyl-Met-oxazolone it was 1.63; in the data set on biotinyl-Leu-oxazolone, 1.86; in the data set on biotinyl-Ile-oxazolone, 2.08; in the data set with biotinyl-Trp-oxazolone it was 2.08.
Turning to “CCACAGUUCAAGCUAUCGGUC [Fam1B.1 aminoacylation ribozyme variant]”, the self-aminoacylation was 0.851 in the data set with biotinyl-Phe-oxazolone; 1.27 in the data set with biotinyl-Val-oxazolone; 1.25 in the data set on biotinyl-Met-oxazolone; 1.1 in the data set on biotinyl-Leu-oxazolone; 1.21 with biotinyl-Ile-oxazolone; 0.749 in the data set on biotinyl-Trp-oxazolone.
As to “ACAUUUGCUAAUAGUCGCAAG [Fam3.1 aminoacylation ribozyme variant]”, the self-aminoacylation turned out to be 2.27 in the data set on biotinyl-Phe-oxazolone; 1.92 in the data set on biotinyl-Val-oxazolone; 1.79 with biotinyl-Met-oxazolone; 2.43 in the data set with biotinyl-Leu-oxazolone; 2.46 in the data set with biotinyl-Ile-oxazolone; 1.32 with biotinyl-Trp-oxazolone.
Turning to “AUUACCCAGGUAAUCGAGUGA [Fam2.1 aminoacylation ribozyme variant]”, the self-aminoacylation was 44.6 in the data set with biotinyl-Phe-oxazolone; 3.56 in the data set with biotinyl-Val-oxazolone; 7.57 with biotinyl-Met-oxazolone; 8.05 with biotinyl-Leu-oxazolone; 3.26 with biotinyl-Ile-oxazolone; 9.28 in the data set with biotinyl-Trp-oxazolone.
For “CUACUUCAAACAAUAGGUGUG [Fam1A.1 aminoacylation ribozyme variant]”, the self-aminoacylation with biotinyl-Phe-oxazolone was determined as 1.38; in the data set with biotinyl-Val-oxazolone it was 0.975; in the data set on biotinyl-Met-oxazolone, 1.22; in the data set with biotinyl-Leu-oxazolone, 1.25; with biotinyl-Ile-oxazolone, 1.07; with biotinyl-Trp-oxazolone, 0.781.
For the sequence “AUUACCCUGGUCCACGAGUGA [Fam2.1 aminoacylation ribozyme variant]”, the self-aminoacylation is 61.1 in the data set with biotinyl-Phe-oxazolone; 4.95 in the data set with biotinyl-Val-oxazolone; 9.99 with biotinyl-Met-oxazolone; 10.7 with biotinyl-Leu-oxazolone; 5.37 in the data set with biotinyl-Ile-oxazolone; 10.5 in the data set with biotinyl-Trp-oxazolone.
As to “CUACUUCAAGCAAUCGGUCGG [Fam1A.1 aminoacylation ribozyme variant]”, the self-aminoacylation with biotinyl-Phe-oxazolone was 5.87; in the data set on biotinyl-Val-oxazolone, 1.25; in the data set with biotinyl-Met-oxazolone it was 1.08; in the data set with biotinyl-Leu-oxazolone it was 1.69; with biotinyl-Ile-oxazolone it was 1.53; in the data set on biotinyl-Trp-oxazolone it was 4.8.
Turning to “AAGUUUACUAUUAGUCGCAAG [Fam3.1 aminoacylation ribozyme variant]”, the self-aminoacylation in the data set with biotinyl-Phe-oxazolone is 2.72; in the data set with biotinyl-Val-oxazolone it was 1.76; in the data set with biotinyl-Met-oxazolone it was 1.59; with biotinyl-Leu-oxazolone, 1.49; in the data set with biotinyl-Ile-oxazolone, 1.83; in the data set on biotinyl-Trp-oxazolone, 2.02.
As for “CUACUUCAGAAAAUCGGUCUG [Fam1A.1 aminoacylation ribozyme variant]”, the self-aminoacylation stood at 1.55 in the data set with biotinyl-Phe-oxazolone; 0.816 in the data set on biotinyl-Val-oxazolone; 0.803 in the data set on biotinyl-Met-oxazolone; 0.757 in the data set with biotinyl-Leu-oxazolone; 0.791 in the data set with biotinyl-Ile-oxazolone; 0.826 with biotinyl-Trp-oxazolone.
Consider “AAGUUUGCUGAUAGUCGGAAG [Fam3.1 aminoacylation ribozyme variant]”, for which the self-aminoacylation was determined as 0.837 with biotinyl-Phe-oxazolone; 0.838 in the data set with biotinyl-Val-oxazolone; 0.933 in the data set on biotinyl-Met-oxazolone; 0.849 in the data set on biotinyl-Leu-oxazolone; 0.72 with biotinyl-Ile-oxazolone; 0.832 in the data set on biotinyl-Trp-oxazolone.
On to “AAGUAUGCUAAUAGUCGCAGG [Fam3.1 aminoacylation ribozyme variant]”, for which the self-aminoacylation was determined as 2.31 with biotinyl-Phe-oxazolone; 1.48 in the data set with biotinyl-Val-oxazolone; 1.37 in the data set with biotinyl-Met-oxazolone; 1.46 in the data set on biotinyl-Leu-oxazolone; 1.44 with biotinyl-Ile-oxazolone; 1.2 in the data set on biotinyl-Trp-oxazolone.
